In patent US20160053014A1 (SORRENTO THERAPEUTICS, published 2016):
Residue numbers refer to the chain shown, from its start. “And” between values parts separate entries of the source, which are not always exact repeats. Equal values may be shown once.

T1: human CXCR5 (human, UniProt P32302 1-372)
T1 construct: whole, on cells; also called hu-CHO; CHO-CXCR5 cells
T1 sequence (looked up): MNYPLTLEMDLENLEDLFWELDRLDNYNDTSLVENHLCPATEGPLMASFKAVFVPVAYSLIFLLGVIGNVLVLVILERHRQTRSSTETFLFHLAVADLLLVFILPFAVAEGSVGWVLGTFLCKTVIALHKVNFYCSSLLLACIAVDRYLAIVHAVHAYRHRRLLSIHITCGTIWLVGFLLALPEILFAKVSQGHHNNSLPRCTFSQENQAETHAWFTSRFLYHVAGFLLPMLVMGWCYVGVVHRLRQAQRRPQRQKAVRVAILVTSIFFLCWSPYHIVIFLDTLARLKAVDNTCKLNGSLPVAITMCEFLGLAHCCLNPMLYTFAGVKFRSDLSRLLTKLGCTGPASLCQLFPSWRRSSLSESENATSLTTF

B1: 12B11 (antibody, V domains shown)
VH: EVQLVESGGGLVKPGRSLRLSCTASGFPFGDYAMSWFRQAPGKGLEWVALISYDGRNNYYADSVKGRFTISRDNSKNTLYLQMNSLRAEDTAVFYCARDRMRGPGGRFYYYHAMDVWGQGTTVTVSS
VL: SYELMQPPSVSRGLRQTATLTCAGTRNDVGNEGASWLQQHQGHPPKLLSYRDTNRPSGISDRFSASRSGNTASLTISGLQPEDEADYYCSAWDSSLRAWVFGGGTKLTVL
notes: tested as human IgG; also called 14E10
B2: 16A8 (antibody, V domains shown)
VH: QVQLVESGGGVVQPGRSLRLSCAASGFTFSNYGMHWVRQAPGKGLEWVATISYDGSNNYYAASVKGRFTVSRDNSTLYLQMNSLRAEDTAVYYCAGAIAAAGVWGQGTLVTVSS
VL: LPVLTQPASVSGSPGQSITISCTGTSSDVGGYNYVSWYQQHPGKAPKLMIYDVSNRPSGVSDRFSGSKSGNTASLNISGLQPDDEAEYYCSSYRTKNTLVFGGGTKLTVL
notes: tested as human IgG
B3: 11D3 (antibody, V domains shown)
VH: QVQLVQSGGGVVQPGRSLRLSCAASGFTFSNFGMHWVRQAPGKGLEWVAVISYDGSNKYYADSVKGRFTISRDNSKNTLYLQMNSLRAEDTAVYYCARNTVTYHDVWGQGTTVTVSS
VL: QPVLTQPASVSGSPGQSITISCTGTSSDVGGYNYVSWYQQHPGKAPKLMINDVSNRPSGVSSRFSGSKSGNTASLTISGLQAEDEADYYCSSYTSSSTLVFGGGTKLTVL
notes: tested as human IgG
B4: 12C1 (antibody, V domains shown)
VH: EVQLLESGGGLVKPGGSLRLSCAASGFTFNNYAMHWVRQAPGKGLEWLTVISFYGGKQYYADSVKGRFTISRDNSRNTLYLQMNSLRADDTAVYYCARDNGRHFDYWGQGTLVTVSS
VL: B3 VL with N51Y, N55K, S62N, S91T, T94R, S96G, S97R, L99Y, G103S, L107V
notes: tested as human IgG
B5: 52A9 (antibody, V domains shown)
VH: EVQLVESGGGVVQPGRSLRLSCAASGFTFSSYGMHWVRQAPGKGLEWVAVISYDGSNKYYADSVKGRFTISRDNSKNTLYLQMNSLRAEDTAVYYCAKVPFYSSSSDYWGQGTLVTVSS
VL: B3 VL with P2S, L4V, Y32S, N33K, Y38F, N51Y, S62Y, S91T, S97R, L99W
notes: tested as human IgG
B6: 13G9 (antibody, V domains shown)
VH: EVQLVESGGGVVQPGRSLRLSCAASGFTFSRYGMHWVRQSPGKGLEWVAGISYDGSDKYYADSVKGRFTISRANSKNTLFLQMNSLRAEDTAVYYCARARGLDYWGQGTTVTVSS
VL: QAVLTQPASVSGSPGQSITISCTGTSSDIGSYNLVSWYQQHPGKAPKLIIYEVNKRPSGVSNRFSGSKSGNTASLTISGLQAEDEADYYCSSYRSINTVVFGGGTQLTVL
notes: tested as human IgG
B7: 52B10 (antibody, V domains shown)
VH: EVQLLESGGGLVQPGGSLRLSCAGSESTFGDSWLNWVRQAPGKGLEWVANINKDGSKKEYVESVKGRFTISRDNAKKSVYLQMNSLRVEDTAVYYCLLKGVWGQGTLVTVSS
VL: AIQLTQSPSFLSASVGDRVTITCRASQGISSYLAWYQQKPGKAPKLLIYAASTLQSGVPSRFSGSGSGTEFTLTISSLQPEDFATYYCQQLNSYPITFGPGTKVDIK
notes: tested as human IgG
B8: 16B7 (antibody, V domains shown)
VH: QVQLVESGAEVKKPGASVKVSCKASGYTFTSYYVHWVRQAPGQGLEWMGIINPSGGTTSYAQKFQGRVTMTRDTSTSTVYMELSSLRSEDTAVYYCVRDRRVVAATTPSAFDVWGQGTMVTVSS
VL: QSVVTQPPSVSAAPGQRVTISCSGSTSNIGSNYVSWYHQLPGTAPKLLVYHNDKRPSGIPDRFSGSKSGTSATLGITGLQTGDEADYYCGTWDSSLSVWVFGGGTKVTVL
notes: tested as human IgG
B9: PC12 (antibody, V domains shown)
VH: B8 VH with Q1E, V5L
VL: QSVVTQPPSVSAAPGQKVTISCSGSSSNIGNNYVSWYQQLPGTAPKLLIYDNNKRPSGIPDRFSGSKSGTSATLGIVGLQTGDEADYYCATWDGSLSTFLFGPGTKLTVL
notes: tested as human IgG
B10: 52A10 (antibody, V domains shown)
VH: QVQLVQSGAEVKKPGASVKVSCKASGYTFTSYGISWVRQAPGQGLEWVGWISAYNGNTNYAQKLQGRVTMTTDTSTSTAYMELRSLRSDDTAVYYCARGSDYWGQGTLVTVSS
VL: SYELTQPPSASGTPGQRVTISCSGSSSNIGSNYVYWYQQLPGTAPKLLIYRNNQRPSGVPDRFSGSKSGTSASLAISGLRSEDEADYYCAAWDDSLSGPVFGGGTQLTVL
notes: tested as human IgG
B11: 52D6 (antibody, V domains shown)
VH: EVQLLESGGGLVQPGRSLRLSCAASGFNFDAYAMHWVRQAPGKGLEWVSGISWNSGYIAYADSVEGRFAISRDNSKNTVFLQMNSLRAEDTAIYYCARDRWLSYWGQGTLVTVSS
VL: QSVLTQPASVSGSPGQSITISCTGTSSDVGGYNYVSWYQQHPGKAPKLMIYDVSKRPSGVSNRFSGSKSGNTASLTVSGLQAEDEAEYYCSSYAGSNFVVFGGGTKLTVL
notes: tested as human IgG
B12: 52H9 (antibody, V domains shown)
VH: QVQLVESGGGVVQPGRSLRLSCAASGFTFSSYGMHWVRQAPGKGLEWVAVISYDGSNKYYADSVKGRFTISRDNSKNTLYLQMNSLRAEDTAVYYCAKLSGPTAKFDYWGQGTLVTVSS
VL: QSVLTQPASVSGSPGQSVTISCTGTSRDVGGYNFVSWYQQHPGKAPKLMIYDVSNRPSGVSNRFTGSKSGNTASLTISGLQAEDEADYHCSSYRRGDTLVFGGGTKLTVL
notes: tested as human IgG
B13: 14D7 (antibody, V domains shown)
VH: QVQLVQSGGGVVQPGRSLRLSCAASGFTFSSYGMHWVRQAPGKGLEWVAVISYDGSNKYYADSVKGRFTISRDNSKNTLYLQMNSLRAEDTAVYYCAKWGRRGAPDYWGQGTLVTVSS
VL: ETTLTQSPGTLSVSPGERATLSCRASQSVSSNLAWYQQKPGQAPRLLIYGASTRATGIPARFSGSGSGTDFTLTISSLEPEDFAVYYCQQRNNWPLTFGGGTKVEIK
notes: tested as human IgG
B14: 15H2 (antibody, V domains shown)
VH: EVQLVESGGGVVQPGRSLRLSCAASGFTFSSYAMHWVRQAPGKGLEWVAVISYDGSKKYYADSVKGRFTISRDNSKNTLYLQMNSLRAEDTAVYYCARVGIAAAVGMDVWGQGTTVTVSS
VL: DIVMTQTPLSLPVTLGQPASISCRSSQSLVYRDGNTYLNWFQQRPGQSPRRLIYKVSNRDSGVPDRFSGSGSGTDFTLKISRVEAEDVGVYYCMQGTHWPLTFGQGTKVEI
notes: tested as human IgG; 181/182 '15H2' while the text calls the same pair '15H12'; also called 15H12
B15: 14B11 (antibody, V domains shown)
VH: QVQLVESGGGVVQPGMSLRLSCAASGFTFSSHAMHWVRQAPGKGLEWVAQIWSDGSNRYYSDSVKGRFTISRDQSKNTVSLQMNSLRAEDTAVYFCARDGQSMAPYAMDVWGQGTMVTVSS
VL: DIVMTQTPLSLPVTPGEPASISCRSSQSLLHKNGNNYLDWYLQRPGQSPQLLIYLASNRASGVPDRFSGSGSGTDFTLEISRVQPEDVGVYYCMQGLQTPTFGPGTKVEIK
notes: tested as human IgG
B16: 14C11 (antibody, V domains shown)
VH: QVQLQQSGPGLVKPSQTLSLTCAISGDTVSTNRAAWYWIRQSPSRGLEWLGRTHYRSRWLNDYAPSVKSRITINPDTSKNQFSLQLNSVTPEDTAVYYCARGAAGRAFDIWGQGTLVTVSS
VL: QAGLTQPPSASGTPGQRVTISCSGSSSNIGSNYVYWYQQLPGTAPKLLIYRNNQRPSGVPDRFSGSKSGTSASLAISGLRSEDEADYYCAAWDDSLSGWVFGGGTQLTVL
notes: tested as human IgG
B17: 14D9 (antibody, V domains shown)
VH: EVQLVESGGGVVQPGRSLRLSCAASGFTFSSYAMHWVRQAPGKGLEWVAVISYDGSNKYYADSVKGRFTISRDNSKNTLYLQMNSLRAEDTAVYYCARSAWLDSWGQGTLVTVSS
VL: QAGLTQPHSVSGSPGQSVTISCTGTSSDVGSYNHVSWYQQHPGKAPKLMIYDVSKRPSGVSNRFSGSKSGNTASLTISGLQAEDEADYYCSSYTSSSTYVFGTGTKVTVL
notes: tested as human IgG
B18: 16E3 (antibody, V domains shown)
VH: QVQLVESGGGVVQPGRSLRLSCAASGFTFSSNGMHWVRQAPGKGLEWVAAISYNGRNQYYADSLKGRFTISRDNSKNSLYLQMNSLRAEDTAVYYCATPAATLDYWGQGTLVTVSS
VL: B3 VL with P2S, Q40H, N51Y, S54T, N55Y, S62N, G103T, L107V
notes: tested as human IgG
B19: 11F3 (antibody, V domains shown)
VH: QVQLVESGGGVVQPGRSLRLYCAASGFIFSSYAIHWVRQAPGKGLEWVAVISYDGSKKYYADSVEGRFTISRDNSKNSLYLQMNSLRVDDTAVYYCAAHRQLGYWGQGTLVTVSS
VL: B3 VL with P2S, A8P, V10A, I18V, N51Y, N55K, S62N
notes: tested as human IgG
B20: 52C6 (antibody, V domains shown)
VH: QVQLVESGGGLVQPGGSLRLSCAASGFTFDDYAMHWVRQAPGKGLQWVAVISHDGSAKYYADSVKGRFTISRDNAKNSLYLQMNSLRAEDTAVYYCARSRWGDNWGQGTLVTVSS
VL: SYELMQPASVSGSPGQSITISCTGTSSDVGGYNYVSWYQQHPGKAPKLMIYDVSKRPSGVSNRFSGSKSGNTASLTISGLQAEDEADYYCSSYTSSSTPYVFGTGTKLTVL
notes: tested as human IgG
B21: 14F11 (antibody, V domains shown)
VH: EVQLVQSGAEVKKPGASVKVSCKASGSTFTNYYIHWVRQAPGQGLEWMGIINPSGGSIGSPQKFQGRVTMTRDTSTNTVYMELSSLRSEDTAVYYCASRSFGNDGVFDIWGQGTMVTVSS
VL: LPVLTQPRSVSGSPRQSVTISCTGTSSDVGGYNYVSWYQQHPGKAPKLMIYDVSKRPSGVPDRFSGSKSGNTASLTISGLQAEDEAHYYCKSYTTSRTWVFGGGTKLTVL
notes: tested as human IgG

biological target: T1, human CXCR5; experiment: flow cytometry on CHO-CXCR5 cells, IgG titration
Text: This example describes a cellular binding assay to determine the EC₅₀ for anti-CXCR5 antibodies binding to human CXCR5. […] In this example, CHO-CXCR5 cells were lifted from culture flasks using non-enzymatic Cell Dissociation Buffer—PBS based (Life Technologies #13151-014). Cells were resuspended in FACS Buffer (2% Fetal Bovine Serum in PBS) at 1×10⁶ cells/ml and […] were aliquoted into the wells of a 96-well plate. Plated cells were spun down and the supernatant discarded. Cells were resuspended in 30 μl FACS Buffer serially diluted concentrations of CXCR5 IgG in triplicate. Plates were incubated for 1 hr at 4° C. and then washed 2× with FACS Buffer. Cells were resuspended in 50 μl goat anti-human IgG (γ-chain specific)-PE conjugated secondary antibody (Southern Biotech #2040-09) diluted 1:500 in FACS Buffer. Cells were further incubated for 30 min at 4° C. and then washed 1× with FACS Buffer. The cells were resuspended in a final volume of 30 μl FACS Buffer and analyzed using the Intellicyt Flow Cytometer. Median fluorescence in the FL-2H channel was determined using FlowJo software and EC₅₀ value was determined by plotting the data in GraphPad Prism and analyzing using a variable slope non-linear regression.

For B1, the EC50 was 53 nM and 57 nM.
In the case of B7, the EC50 is reported as 0.5 nM and 0.46 nM.
In the case of B10, the EC50 is reported as 0.5 nM and 0.54 nM.
With B20 the EC50 was 3 nM and 2.8 nM.

Point of comparison: B14, EC50 6.1 nM. Against it:
- B2 — 2.7-fold lower, 2.3 nM
- B3 — 2.3-fold lower, 2.7 nM
- B4 — 2-fold higher, 12 nM
- B5 — 5.1-fold higher, 31 nM
- B6 — 2-fold lower, 3 nM
- B8 — 14-fold higher, 88 nM
- B9 — within 1.5-fold, 4.2 nM
- B11 — 3.9-fold higher, 24 nM
- B12 — 1.5-fold lower, 4 nM
- B13 — 1.5-fold lower, 4 nM
- B15 — 1.6-fold higher, 10 nM
- B16 — 3.4-fold higher, 21 nM
- B17 — 3.6-fold higher, 22 nM
- B18 — 41-fold higher, 250 nM
- B19 — 2.1-fold higher, 13 nM
- B21 — 1.6-fold lower, 3.8 nM
